Data taken from patent US20210130799.

Key:
Experiment in all cases: cleavage_in_vitro
[1] = system: StCsm6 (Streptococcus thermophilus DGCC8004)
[2] = system: StCsm6' (Streptococcus thermophilus DGCC8004)
[3] = target: T1, TtCsm6 (Thermus thermophilus) (UniProt Q53W17); details: cyclic, 3'-5' linked; c(AMP)4 amount required to activate RNase
T1 sequence: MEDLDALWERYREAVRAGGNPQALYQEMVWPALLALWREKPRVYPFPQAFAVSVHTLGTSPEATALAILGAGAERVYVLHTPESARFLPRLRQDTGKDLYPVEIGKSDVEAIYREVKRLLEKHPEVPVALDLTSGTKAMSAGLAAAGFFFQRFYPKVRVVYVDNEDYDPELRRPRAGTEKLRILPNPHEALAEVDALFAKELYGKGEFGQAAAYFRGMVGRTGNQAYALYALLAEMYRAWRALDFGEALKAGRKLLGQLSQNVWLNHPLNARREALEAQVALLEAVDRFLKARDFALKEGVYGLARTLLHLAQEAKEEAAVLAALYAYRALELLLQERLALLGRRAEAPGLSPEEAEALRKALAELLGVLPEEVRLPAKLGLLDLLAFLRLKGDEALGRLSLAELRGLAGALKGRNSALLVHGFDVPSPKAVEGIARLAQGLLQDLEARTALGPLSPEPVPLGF

[4] = cyclic, 3'-5' linked, c(AMP)6 amount sufficient to activate RNase on RNA NS

Sequence “GGGCGGCAAAUUGAGGAUUUCGUAACUGUUUAAUUCUGUUCACUUAUUCCACCAACAAAAGGUGGCGA [RNA NS]” has an activity ([1]; lowest StCsm6 concentration for degradation with 0.5 uM cyclic oligoadenylate mix, 1 uM needed without, 1 mM EDTA, 37 C) of 1 nM and an activity ([2]; StCsm6' concentration for degradation with cyclic oligoadenylates, 1 uM needed without, 1 mM EDTA, 37 C) of 1 nM.
Work on AAAA [c(AMP)4] yielded an activity [3] of 50 nM.
For AAAAAA [c(AMP)6], the activity [1, 4] was 0.5 nM and the activity [2, 4] was 5 nM.
